± gives the half width of the 95% confidence interval.
Experiments:
[1] = folding stability dG unfold from trypsin proteolysis; higher = more stable
Method in brief: (§1)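 Designed mini-proteins (under 80 residues, no cysteine) in a PA-tagged cDNA display construct were digested with trypsin and chymotrypsin. Each protease was used at 11 concentrations (threefold dilutions) plus a no-protease condition, followed by sequencing. K50 was inferred by Bayesian fitting of sequencing counts, and unfolding free energy was derived against a sequence-predicted unfolded-state K50 and a shared folded-state K50, per protease or combined. Only designs with AlphaFold2 dimer inter-PAE above 15 were kept.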

[2] = folding stability dG unfold from chymotrypsin proteolysis; higher = more stable
Method in brief: as §1

[3] = folding stability dG unfold (combined trypsin and chymotrypsin); higher = more stable
Method in brief: as §1

Sequence	folding stability dG unfold [1]	folding stability dG unfold [2]	folding stability dG unfold [3]
SAGGSAGGSAGKKPEKYILIKVKKEDVEKLLEAIKKLLPPGAEIVKIEKTPEYVYIVVKLSAGGSAGGSAGG [r11_698_TrROS_Hall]	3.39 ± 0.13 kcal/mol	4.38 ± 0.07 kcal/mol	4.21 ± 0.086 kcal/mol
SAGGSAGGSAGGSMKVEKLPDGKLLVFDVDTKEWKEIDVEDAEVVLDEDNGRAIVRIKPSAGGSAGGSAGGS [r4_127_TrROS_Hall]	-0.173 ± 0.16 kcal/mol	1.76 ± 0.076 kcal/mol	0.902 ± 0.28 kcal/mol
SAGGSAGGSPEEFEIKIVEPTPIEINPNGSVSLTFTVPNGWYLRIMIMRPPDGNPQPMIMIIPSAGGSAGGS [r20_240_TrROS]	2.86 ± 0.086 kcal/mol	3.54 ± 0.062 kcal/mol	3.22 ± 0.11 kcal/mol
SAGMVIRLTSPTGSLEITITVEPDGETREAVVKAASGEEVSVIPPSVSVEEIKKRFPDVTASEEPLDLPSAG [r5_314_JUSTAS]	0.518 ± 0.037 kcal/mol	0.653 ± 0.038 kcal/mol	0.628 ± 0.071 kcal/mol
SAGGSAGGSAGPPPFKLKIDEMEMADDMFRIKLTIEDPNGEVTVDYWIGNQPFKLRIKPDSAGGSAGGSAGG [r17_45_TrROS]	1.53 ± 0.039 kcal/mol	2.39 ± 0.17 kcal/mol	2.12 ± 0.17 kcal/mol
SAGGSAGGSAKIKIKVKPGEKVRIYNKKTKKEIAEVEVVEVKEGKIVVKLKNGKLYEIEIEPSAGGSAGGSA [r18_363_TrROS_Hall]	1.67 ± 0.033 kcal/mol	2.36 ± 0.06 kcal/mol	2.18 ± 0.052 kcal/mol
SAGGSAMPDNMKPVGSIPMVYLVPDGWIMRINYEYWKNPESGMWMINMDIEVFPLPKNDPELLKAISAGGSA [r15_207_TrROS]	2.42 ± 0.18 kcal/mol	2.65 ± 0.093 kcal/mol	2.62 ± 0.18 kcal/mol
SAGGSAGGSKLVLRIVVRNKETGEWQTLELEIEVEESEEEALAKAKELLASLPEEDVKIEILPSAGGSAGGS [r12_871_TrROS_Hall]	3.18 ± 0.14 kcal/mol	3.79 ± 0.065 kcal/mol	3.56 ± 0.071 kcal/mol
SAGDIGRVEARPVPLPGDRPGRVVVVESSVPNLRVLLFRGPEDRWVALVETDGRVEELPLEEALRLLASSAG [r5_157_TrMRF]	1.69 ± 0.043 kcal/mol	2.717 ± 0.021 kcal/mol	2.39 ± 0.076 kcal/mol
SAGGSAGGSMKPVVDSKADPTSGPEKTLTLTLGDETVTHTVSSSESLTIPLPPNSTVSFEPLGSAGGSAGGS [r12_373_JUSTAS]	0.791 ± 0.021 kcal/mol	1.11 ± 0.02 kcal/mol	1.03 ± 0.042 kcal/mol
SSSVTRTYTVTLPGSTVSIEITEKPNPEGSTTVTITVTTTKPGGGSTTTTVTKNITGLTLEDILKEAISSSA [r9_217_JUSTAS]	3.38 ± 0.092 kcal/mol	3.68 ± 0.05 kcal/mol	3.57 ± 0.057 kcal/mol
SDIENMPPEQFVHYIREALDEERENNPGEPVRIPIKDLGDKFPGFPPSMLKDMLGLTEDDLNNGPITIRPSA [r9_525_TrROS]	-0.193 ± 0.079 kcal/mol	-0.189 ± 0.28 kcal/mol	-0.0917 ± 0.23 kcal/mol
SADKVEIEFPMPESGHPFRIVIDKDGKVEIRHPNNGEEYEFKINGKPIRFPPNMSWDDAIDQLKDALKKSAG [r14_561_TrROS]	0.905 ± 0.075 kcal/mol	0.645 ± 0.2 kcal/mol	0.897 ± 0.19 kcal/mol
SAGGSAGGSAIKEIVKRIEKLFGVDVEPEQEEREVNGGRYPTLPVTVKVPPNANSPALKEASAGGSAGGSAG [r3_427_TrROS]	-0.555 ± 0.4 kcal/mol	0.636 ± 0.093 kcal/mol	0.021 ± 0.24 kcal/mol
SAGGSAAEETYESDGLTVTVRTERGPDGTVRVVVEVRDRDGPLLATLPFTFKAREDEGLSFSVPFPSAGGSA [r15_950_TrMRF]	1.28 ± 0.036 kcal/mol	1.26 ± 0.099 kcal/mol	1.34 ± 0.076 kcal/mol
SAGGSAGGSAMTIEQIANELAKKLGVDIKVVVTYENGEKKEYRPDELKNIPPGPFTVEFYTDSAGGSAGGSA [r18_394_TrMRF]	3.01 ± 0.096 kcal/mol	3.71 ± 0.1 kcal/mol	3.51 ± 0.15 kcal/mol
SPPITIEIEYERNPDNGMFPLKVKAWNPDGEPIGEREIPFKGSPEEMRERAMKEAKELADKNGWPIEIEWSA [r9_31_TrROS]	-0.436 ± 0.17 kcal/mol	0.637 ± 0.18 kcal/mol	0.331 ± 0.19 kcal/mol
SAGGMPLEHIAEITEVRTFPDGRKEIRLLVEDPEVAEEGHPELREEMAELLRRLFEEEGLEVRVVPGESAGG [r13_243_TrMRF]	0.0715 ± 0.19 kcal/mol	0.187 ± 0.18 kcal/mol	0.2 ± 0.19 kcal/mol
SAGGSAGGKIEIVFETPSGDIVPITYDPKTKKVDVTVRNKDGKPSEELKEKAIELAKKLIEELESAGGSAGG [r6_224_TrMRF]	0.29 ± 0.25 kcal/mol	1.05 ± 0.15 kcal/mol	0.519 ± 0.26 kcal/mol
SAGGSAGGSAGGKKTLKLPVKITPVKDGLLITLPDGTPILVPKNVTVETTDTTAYVTIGSAGGSAGGSAGGS [r10_305_TrMRF]	0.21 ± 0.067 kcal/mol	-0.375 ± 0.28 kcal/mol	0.0124 ± 0.2 kcal/mol
SAGGSAGGSAGGPPDDWILMIEIVTITIEMKYKDGGKEVERKMEILVIEIAIIPPDDLPSAGGSAGGSAGGS [r10_300_TrROS]	2.21 ± 0.2 kcal/mol	3.59 ± 0.29 kcal/mol	3.11 ± 0.37 kcal/mol

Sequence	folding stability dG unfold [1]	folding stability dG unfold [2]	folding stability dG unfold [3]
SAGGQRIEFEVQPNPENGMIFIKVKFQQMEPDPNGNKETREITHTVMVKLPPGAKPGEKIEIDIPPNMSAGG [r13_450_TrROS]	0.859 ± 0.046 kcal/mol	0.828 ± 0.25 kcal/mol	1.1 ± 0.39 kcal/mol
SAGGSPEIPKDYEVIEIDAETLPDGSVLIPIIVRDPIIPYYLKMYYRSIPTRWEPISFELIHPDELSAGGSA [r2_371_TrMRF]	1.25 ± 0.018 kcal/mol	1.61 ± 0.085 kcal/mol	1.45 ± 0.057 kcal/mol
SAGGSAGGSASAEEEARRLAPEGKLVYKITKGNETTIVALTPEEAEALKKKNPDVEIEPILLSAGGSAGGSA [r18_198_JUSTAS]	1.37 ± 0.035 kcal/mol	3.176 ± 0.021 kcal/mol	2.81 ± 0.087 kcal/mol
SAGGSAGGSAGGIEIRGPNGAELKIESDPDWGMVSIEMPGNRQEIQIPIPLPKPDPEDKNSAGGSAGGSAGG [r7_383_TrROS]	0.838 ± 0.038 kcal/mol	0.22 ± 0.031 kcal/mol	0.568 ± 0.072 kcal/mol
SAGGSAGGSSPDNKPVPPRFMIHVEIEPIKIPPEMREAAKDDPDNIDEIYVITIDVYFVGDDFSAGGSAGGS [r12_196_TrROS]	2.22 ± 0.063 kcal/mol	2.81 ± 0.07 kcal/mol	2.58 ± 0.074 kcal/mol
APKPPVLVVEVVVLFPKEDPEVRELTVEEIAELAAEELTAHPDFKPVKVEVLSAEEHPDGYYTVTLKVTHVS [r1_484_TrMRF]	2.51 ± 0.15 kcal/mol	2.4 ± 0.036 kcal/mol	2.42 ± 0.1 kcal/mol
SAGGSASVSPVTLPLEVAPDEEVEGTLTLTLPSGPTVTYTAEITEVSPDGTANPVVTIDDTPVVVESAGGSA [r15_844_JUSTAS]	1.39 ± 0.053 kcal/mol	0.392 ± 0.091 kcal/mol	0.965 ± 0.045 kcal/mol
SAGGSAGGSEKEIEIELPEGAEIVEIDEEKGVITVRVNGKLIEIEIKPVKVEKVEVELPPEEESAGGSAGGS [r12_243_TrROS_Hall]	2.77 ± 0.19 kcal/mol	1.73 ± 0.13 kcal/mol	2.4 ± 0.17 kcal/mol
SAGGMKTITLEEAKALAEKAAEKGETVEIEVTLPDGTVVKFKVDAKTKKVELVEVKKLPAPPEDPEKKSAGG [r13_839_TrROS_Hall]	1.12 ± 0.046 kcal/mol	3.07 ± 0.088 kcal/mol	2.68 ± 0.13 kcal/mol
SAGGSAGGSTLRLRFRTPDGRLFEIEAEVRPDPDGRVYRLLRIREYDPETDEWLERPFRLPILSAGGSAGGS [r12_57_TrMRF]	3.77 ± 0.12 kcal/mol	3.83 ± 0.019 kcal/mol	3.82 ± 0.056 kcal/mol
SAGGSANLAETPPVTTTETIEIKVPDPGKPLPITEEDVKKKYEGKNTKVEISVEGDKVIITITTKESAGGSA [r15_377_JUSTAS]	0.407 ± 0.054 kcal/mol	0.871 ± 0.094 kcal/mol	0.68 ± 0.24 kcal/mol
MKVIEVPIEGLPVEEIRRVIEEAIEKAKAEGNPDVKIIVTVPGPPELVEATTAVVKEIADKGDVEVSVVALS [r1_387_JUSTAS]	3.83 ± 0.36 kcal/mol	2.82 ± 0.17 kcal/mol	3.52 ± 0.29 kcal/mol
SKKKITIEVEVEKDEETGEYTVRIRITVDGKEIEIEIKAKTPEEAKEKAKKLAEELLKKYPDKVKIEIKPSA [r9_1148_TrROS_Hall]	2.48 ± 0.11 kcal/mol	1.98 ± 0.029 kcal/mol	2.21 ± 0.15 kcal/mol
SAGMDDAEAEKLALEEAEKIAKEAGVPEIEVEVERTPSDRWRATIKFPKTGKTYTIELVGDEPSLVEKGSAG [r14_925_JUSTAS]	1.01 ± 0.049 kcal/mol	1.27 ± 0.2 kcal/mol	1.1 ± 0.14 kcal/mol
SAGGSAGGNIKVKVPYERHPDYYYMTVTIYDPGDDKKLELSYMFPPGTKMPAEEWARDIVKDILSAGGSAGG [r6_234_TrROS]	0.789 ± 0.091 kcal/mol	1.29 ± 0.1 kcal/mol	1.13 ± 0.13 kcal/mol
SAGGSAGGSAGKPSVTILVLTDSPEDALALAKPLLEAGYEVKLELFRLPDDRYLALITVPSAGGSAGGSAGG [r11_677_TrMRF]	2.13 ± 0.041 kcal/mol	3.36 ± 0.039 kcal/mol	2.92 ± 0.094 kcal/mol
SAGMIEIKSEDGSTFRIEFDKETGEVKVEYDKNTGVVKVTLPDGKEVEIEIEGMSLEEVLKKLEELLKKSAG [r5_447_TrROS_Hall]	2.01 ± 0.19 kcal/mol	1.78 ± 0.13 kcal/mol	1.94 ± 0.22 kcal/mol
SAGGGKKNKIVAVDEEGNEIVFDIDADIDTVFEAIKKLFPNKEIEVDEVIEFEGYPDYVVVFVKIPKKSAGG [r13_832_TrMRF]	1.72 ± 0.14 kcal/mol	2.59 ± 0.069 kcal/mol	2.22 ± 0.22 kcal/mol
SAGGSAGGSEKKFKIVSVKVEYNKETGTVTIEVEIYDEKTGKLVLKATITINKNGELKITLEPSAGGSAGGS [r12_115_TrROS_Hall]	3.9 ± 0.45 kcal/mol	5.26 ± 0.46 kcal/mol	> 6 kcal/mol
SAGGSAGGSAGGIKIERDPNYWVIEIEIPIYMPQPDPDGEIKEPKPIAPITITILIPPGGSAGGSAGGSAGG [r7_3_TrROS]	2.09 ± 0.17 kcal/mol	2.22 ± 0.11 kcal/mol	2.21 ± 0.2 kcal/mol
SAGGSAGWVTFDILFPGKTIEEAKEFIEQIPPEFMNNIKKIEIDEIHPVGGWYHVTLTIEVPPGMKSAGGSA [r15_244_TrROS]	0.743 ± 0.14 kcal/mol	2.06 ± 0.049 kcal/mol	1.71 ± 0.16 kcal/mol
